Values quoted from earlier work as cited in paper PMC9274133.
pKd: −log10 of the molar value.

Assays:
IL-6R (Homo sapiens) = IL-6R (Homo sapiens) (UniProt P08887)
gp130 (Homo sapiens) = gp130 (Homo sapiens) (UniProt P40189)
IL-11R (Homo sapiens) = IL-11R (Homo sapiens) (UniProt Q14626)
Chain of IL-11R (Homo sapiens) (Q14626 23-370): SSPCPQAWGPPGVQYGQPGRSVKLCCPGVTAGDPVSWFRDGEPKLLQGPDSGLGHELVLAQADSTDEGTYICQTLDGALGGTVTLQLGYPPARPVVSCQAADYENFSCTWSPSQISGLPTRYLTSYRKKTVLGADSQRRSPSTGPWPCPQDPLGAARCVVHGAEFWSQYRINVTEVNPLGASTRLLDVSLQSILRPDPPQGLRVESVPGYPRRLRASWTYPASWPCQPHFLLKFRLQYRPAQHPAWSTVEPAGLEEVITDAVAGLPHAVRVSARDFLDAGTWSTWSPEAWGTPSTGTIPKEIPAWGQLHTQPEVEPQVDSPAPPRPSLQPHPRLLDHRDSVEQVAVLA

Chain of IL-11 (P20809 22-199): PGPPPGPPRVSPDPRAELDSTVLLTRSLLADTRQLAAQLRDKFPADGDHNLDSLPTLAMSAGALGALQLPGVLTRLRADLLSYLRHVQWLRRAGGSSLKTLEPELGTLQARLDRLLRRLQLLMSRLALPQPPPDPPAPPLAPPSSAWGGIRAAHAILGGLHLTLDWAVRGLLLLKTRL
Chain of IL-6R (Homo sapiens) (P08887 20-355): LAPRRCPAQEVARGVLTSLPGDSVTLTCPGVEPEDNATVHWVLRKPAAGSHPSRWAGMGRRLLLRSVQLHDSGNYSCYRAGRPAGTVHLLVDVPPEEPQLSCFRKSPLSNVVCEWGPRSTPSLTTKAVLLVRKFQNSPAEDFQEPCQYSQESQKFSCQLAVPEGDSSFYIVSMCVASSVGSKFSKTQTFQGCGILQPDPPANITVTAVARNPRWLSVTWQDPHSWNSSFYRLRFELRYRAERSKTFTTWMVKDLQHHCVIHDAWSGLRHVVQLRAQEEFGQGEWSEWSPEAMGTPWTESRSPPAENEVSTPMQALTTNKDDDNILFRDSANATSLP
Chain of gp130 (Homo sapiens) (P40189 23-619): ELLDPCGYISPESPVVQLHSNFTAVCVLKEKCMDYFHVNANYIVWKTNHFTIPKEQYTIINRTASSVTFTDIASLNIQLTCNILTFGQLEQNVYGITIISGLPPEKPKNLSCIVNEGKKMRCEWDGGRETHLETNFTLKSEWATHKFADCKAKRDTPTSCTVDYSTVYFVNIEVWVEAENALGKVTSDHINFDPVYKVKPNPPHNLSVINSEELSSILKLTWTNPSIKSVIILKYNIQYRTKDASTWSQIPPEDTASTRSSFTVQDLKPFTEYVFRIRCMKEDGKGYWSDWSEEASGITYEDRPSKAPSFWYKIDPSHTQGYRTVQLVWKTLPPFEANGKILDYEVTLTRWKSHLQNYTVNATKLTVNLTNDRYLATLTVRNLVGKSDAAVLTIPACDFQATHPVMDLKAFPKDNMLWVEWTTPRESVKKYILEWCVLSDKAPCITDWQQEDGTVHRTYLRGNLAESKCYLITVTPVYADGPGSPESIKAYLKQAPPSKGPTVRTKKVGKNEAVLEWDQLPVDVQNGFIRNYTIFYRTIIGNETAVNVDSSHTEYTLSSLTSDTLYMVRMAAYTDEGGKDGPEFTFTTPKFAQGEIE

Substance: IL-6 (from UniProt P05231)
- pKd (IL-6R (Homo sapiens)): 9.00

Substance: IL-6/IL-6R complex (from UniProt P05231)
- pKd (gp130 (Homo sapiens)): 11.00

Substance: IL-11 (from UniProt P20809)
- pKd (IL-11R (Homo sapiens)): 8.00
